{
  "source": "paper PMC7324553",
  "about": "“Activity-Based Protein Profiling Reveals That Cephalosporins Selectively Active on Non-replicating Mycobacterium tuberculosis Bind Multiple Protein Families and Spare Peptidoglycan Transpeptidases” (Frontiers in Microbiology, 2020)",
  "proteins": {"B1": {"name": "Rv1738 (uncharacterized protein Rv1738; potential hibernation factor) (natural protein)", "chain": "MCGDQSDHVLQHWTVDISIDEHEGLTRAKARLRWREKELVGVGLARLNPADRNVPEIGDELSVARALSDLGKRMLKVSTHDIEAVTHQPARLLY"}},
  "biological_target": "the molecule itself",
  "assay": "SEC; Superdex 75 column, 20 mM Tris-Cl (pH 7.5), 150 mM NaCl; profile compared with protein size standards (44 and 17 kDa)",
  "data": [
    {"protein": "B1", "values": [
      {"measurement": "stoichiometry N", "result": 2}
    ]}
  ]
}
